# Reference: PMC8639466
# B1: 15 bp FAM GT-rich dsDNA (dsDNA)
# DNA 1: GGGGTGATTGTTCAG
# DNA 2: CTGAACAATCACCCC
# Assays:
# [1] = target: hSSRP1-PH2 (Leu101-Thr195) (human); assay: SEC; molecular weight calibration of the single protein in solution
# [2] = target: hSSRP1-HMG520-616 (Homo sapiens, UniProt Q08945 520-616); assay: EMSA; EMSA: 5 uM DNA, 137 mM NaCl, 2.7 mM KCl, 10 mM Na2HPO4, 2 mM KH2PO4 pH 7.4, 30 min on ice, 12% native PAGE; single-molecule: 10 mM Tris, 20 mM EDTA, 25 mM KCl; conditions: protein: recombinant; tags: GST or His-SUMO fusion vector; GST cleaved; label: 5'-FAM on strand 1; blunt
# hSSRP1-HMG520-616, sequence (Q08945 520-616): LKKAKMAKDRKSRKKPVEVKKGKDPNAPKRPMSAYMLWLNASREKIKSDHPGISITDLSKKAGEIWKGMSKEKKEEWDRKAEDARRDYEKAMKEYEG
# [3] = target: hSSRP1-HMG546-616 (Homo sapiens, UniProt Q08945 546-616); assay: as above; conditions: protein: recombinant; tags: GST or His-SUMO fusion vector; GST cleaved; label: 5'-FAM on strand 1; blunt
# hSSRP1-HMG546-616, sequence (Q08945 546-616): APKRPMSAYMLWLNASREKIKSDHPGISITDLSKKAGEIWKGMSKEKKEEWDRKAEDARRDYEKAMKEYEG
molecule,measurement,setting,value
hSSRP1-PH2 (Leu101-Thr195) (domain or fragment),stoichiometry N,[1],4
B1,binding result,[2],binds
same,binding result,[3],no binding
